# Data: PMC3622683, “Purification, Gene Cloning, and Biochemical Characterization of a β-Glucosidase Capable of Hydrolyzing Sesaminol Triglucoside from Paenibacillus sp. KB0549” (PLoS ONE, 2013)
# B1: rPSTG (recombinant PSTG, STG-hydrolyzing β-glucosidase) (Paenibacillus relictisesami) (protein)
# chain: MSERRDLKALISQMTLEEKASLCTGRDTWHTQPIERLGIPSVMMTDGPHGLRKQKAASDHLGLFDSVPSTCFPSAVGVASSWNRDLIERMGQALGKECQAENVAVLLGPGANIKRSPLCGRNFEYFSEDPYLSSEMAAHHIMGVQSQGVGTSLKHFAANNQEYRRMTSDSVVNERTLREIYLTSFEGAVKKARPWTVMCSYNKVNGEYAAENERLLTGILKQEWGHEGFVVSDWGAVNDRVKSLAAGLELEMPHEGAGTKQIIEAVESGQLAEEKLDLAVERLLTVIFRSVDQHKEGAVYDPEAHHKLAREIAAESMVLLKNEDRILPLKREGTIAVIGELAKVPRYQGSGSSQIKPTRLDDIVFELAASAGEHARVTYTQGYDLKSDDINAVLTEEALQAAKEASVAVLFAGLPKRYESEGFDRKHMRMPDNQIALIEAVAAVQPNLVVVLCNGAPIEMPWLPQAKAVLEAYLGGQALGGAIADLLFGDANPSGKLAETFPVQLSDNPSFLNFPGEGDRVEYREGLFVGYRYYDKKQLRPLFPFGHGLSYTTFAYSNLSVDKKEILDTETLKVCVNVKNTGERAGKEIVQLYVRDVESSVIRPLKELKGFDKVFLAPGEEKTLTFELGKRSFAYYDPSIKDWMVETGAFEILIGRSSQDIVLAETVMVRSTVSRKIVYHRNSTVADLMLTEKGAAFAQKLRGMIPFGETVGEEYAEMLEAFKESVPLRGLISFSAGRFTEEDLSKLLEYLNG
# notes: full-length 753 aa, 83,298 Da, no signal peptide; expressed from pDEST17 in E. coli BL21-AI, HisTrap purified (tag cleavage not mentioned); likely tetramer, 310 kDa; GH3
# Legend:
# Details in all cases: pH 7.0, 37°C, potassium phosphate
# purified protein [1] = substrate: O=[N+]([O-])c1ccc(O[C@@H]2O[C@H](CO)[C@@H](O)[C@H](O)[C@H]2O)cc1; experiment: purified protein
# purified protein [2] = substrate: O=[N+]([O-])c1ccc(O[C@@H]2O[C@H](CO)[C@H](O)[C@H](O)[C@H]2O)cc1; experiment: purified protein
# [3] = substrate: OC[C@H]1O[C@@H](OC[C@H]2O[C@@H](Oc3cc4c(cc3[C@H]3OC[C@H]5[C@@H]3CO[C@@H]5c3ccc5c(c3)OCO5)OCO4)[C@H](O[C@@H]3O[C@H](CO)[C@@H](O)[C@H](O)[C@H]3O)[C@@H](O)[C@@H]2O)[C@H](O)[C@@H](O)[C@@H]1O; experiment: HPLC of STG hydrolysis, initial velocities; assay type: biochemical, Paenibacillus relictisesami
# Method: HPLC of STG hydrolysis, initial velocities on rPSTG (recombinant PSTG, STG-hydrolyzing β-glucosidase) | k cat and K m values of rPSTG for hydrolysis of STG were determined
# purified protein [4] = substrate: O=[N+]([O-])c1ccc(O[C@@H]2OC[C@@H](O)[C@H](O)[C@H]2O)cc1; experiment: purified protein; assay type: biochemical, Paenibacillus relictisesami
# purified protein [5] = substrate: O=[N+]([O-])c1ccc(O[C@@H]2O[C@H](CO)[C@@H](O[C@@H]3O[C@H](CO)[C@@H](O)[C@H](O)[C@H]3O)[C@H](O)[C@H]2O)cc1; experiment: purified protein; assay type: biochemical, Paenibacillus relictisesami
protein,measurement,setting,value
B1,Km,purified protein [1],100 ± 10 µM
same,kcat,purified protein [1],44.3 s⁻¹
same,kcat/Km,purified protein [1],426000 M⁻¹ s⁻¹
same,Km,purified protein [2],29000 ± 7000 µM
same,kcat,purified protein [2],2.06 s⁻¹
same,kcat/Km,purified protein [2],71 M⁻¹ s⁻¹
same,Km,[3],1400 ± 400 µM
same,kcat,[3],9.3 ± 0.8 s⁻¹
same,Km,purified protein [4],35700 ± 12200 µM
same,kcat,purified protein [4],69 s⁻¹
same,kcat/Km,purified protein [4],1930 M⁻¹ s⁻¹
same,Km,purified protein [5],230 ± 40 µM
same,kcat,purified protein [5],0.47 ± 0.03 s⁻¹
same,kcat/Km,purified protein [5],2040 M⁻¹ s⁻¹
